Results: article PMC5431190, “Investigation of cationicity and structure of pseudin-2 analogues for enhanced bacterial selectivity and anti-inflammatory activity” (Scientific Reports, 2017)

Molecular target: T1, rhTLR4 (recombinant human Toll-like receptor 4) (human, UniProt O00206 24-631)
T1 construct: Toll-like receptor 4, recombinant human (rhTLR4), bought; No catalogue number is printed; source: bought: R&D systems, Minneapolis, USA
Experiment: BLI; BLItz system (ForteBio); rhTLR4 loaded on a Ni-NTA sensor, various amounts of peptide applied; biosensor hydrated 10 min in PBS; baseline 15 s, loading 60 s, baseline 30 s, association 60 s, dissociation 60 s
Conditions: both partners purified

T1 sequence (O00206 24-631): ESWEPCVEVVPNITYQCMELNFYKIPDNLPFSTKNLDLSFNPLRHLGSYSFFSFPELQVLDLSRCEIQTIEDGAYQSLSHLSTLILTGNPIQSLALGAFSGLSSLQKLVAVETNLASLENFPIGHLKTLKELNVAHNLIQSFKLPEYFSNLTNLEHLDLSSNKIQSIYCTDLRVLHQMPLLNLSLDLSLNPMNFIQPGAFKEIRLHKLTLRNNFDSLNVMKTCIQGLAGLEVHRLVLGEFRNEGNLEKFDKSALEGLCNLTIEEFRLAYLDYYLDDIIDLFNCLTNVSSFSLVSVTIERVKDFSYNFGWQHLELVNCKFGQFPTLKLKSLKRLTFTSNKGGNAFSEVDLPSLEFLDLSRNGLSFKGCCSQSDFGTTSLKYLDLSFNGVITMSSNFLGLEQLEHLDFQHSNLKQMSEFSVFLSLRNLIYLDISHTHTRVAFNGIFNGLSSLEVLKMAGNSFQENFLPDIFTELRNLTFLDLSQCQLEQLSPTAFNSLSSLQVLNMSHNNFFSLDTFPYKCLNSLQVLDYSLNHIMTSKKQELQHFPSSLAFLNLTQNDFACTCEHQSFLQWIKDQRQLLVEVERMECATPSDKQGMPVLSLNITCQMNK

Binder | Kd
GLNALKKVFQGIHEAIKKINNHVQ (source: synthetic peptide (solid-phase, Fmoc; reversed-phase HPLC, purity >95%)) [Ps-K18] | 1.5 µM
GLNALKKVFQGIHKAIKKINNHVQ (source: synthetic peptide (solid-phase, Fmoc; reversed-phase HPLC, purity >95%)) [Ps-K14-K18] | 6.9 µM
GLNALKKVFQGIHEAIKLINNHVQ (source: synthetic peptide (solid-phase, Fmoc; reversed-phase HPLC, purity >95%)) [Pseudin-2] | 0.8 µM
